What was measured:
[1] = biological target: the molecule itself; assay: analytical equilibrium ultracentrifugation, self-association
[2] = biological target: the molecule itself; assay: SDS-PAGE without boiling, self-association
[3] = biological target: the molecule itself; assay: SDS-PAGE with and without boiling, intermolecular self-association
[4] = biological target: T1, DsRed fused downstream of the Gal4 DNA binding domain (pGBT9) (Discosoma sp.); assay: yeast two hybrid, negative control
T1 construct: range 1-147; also called DsRed-prey
Procedure: Yeast two hybrid assays were also performed. […] Alternatively, the yeast were grown on filters placed on plates lacking tryptophan and leucine to select for the bait and prey plasmids. After overnight growth, the filters were removed from the plates, frozen in liquid nitrogen, thawed, and incubated in X-gal overnight at 30° C. and two days at 4° C. to test for β-galactosidase activity (assayed by blue color development).

[5] = biological target: the molecule itself; assay: oligomeric state of the mutant, self-association
[6] = biological target: the molecule itself; assay: non-denaturing polyacrylamide gel electrophoresis, self-association
Procedure: The mutant proteins were prepared following standard methodology and analyzed with polyacrylamide gel electrophoresis as described (Baird et al., supra, 2000). […] This solution was centrifuged in a Beckman XL-1 analytical ultracentrifuge in PBS at 10,000 rpm, 12,000 rpm, 14,000 rpm, and 20,000 rpm.
No attempt was made to disrupt the A:B and C:D interfaces.

[7] = biological target: the molecule itself; assay: analytical equilibrium centrifugation; model in which the tetramer dimerizes into an octamer
[8] = biological target: the molecule itself; assay: fluorescence excitation spectra, FRET within the oligomer

B1: dimer2 (Discosoma variant red fluorescent protein) (other)
chain: MRGSHHHHHHGMASMTGGQQMGRDLYDDDDKDPMVASSEDVIKEFMRFKVRMEGSVNGHEFEIEGEGEGRPYEGTQTAKLKVTKGGPLPFAWDILSPQFQYGSKAYVKHPADIPDYKKLSFPEGFKWERVMNFEDGGVVTVTQDSSLQDGTLIYKVKFRGTNFPPDGPVMQKKTMGWEASTERLYPRDGVLKGEIHQALKLKDGGHYLVEFKTIYMAKKPVQLPGYYYVDTKLDITSHNEDYTIVEQYERSEGRHHLFL
notes: Protomer; forms an AC dimer
**Q.** Does B1 bind [1]?
**A.** binds

B2: tandem DsRed (tDsRed) (other)
chain: MRGSHHHHHHGMASMTGGQQMGRDLYDDDDKDPMRSSKNVIKEFMRFKVRMEGTVNGHEFEIEGEGEGRPYEGHNTVKLKVTKGGPLPFAWDILSPQFQYGSKVYVKHPADIPDYKKLSFPEGFKWERVMNFEDGGVVTVTQDSSLQDGCFIYKVKFIGVNFPSDGPVMQKKTMGWEASTERLYPRDGVLKGEIHKALKLKDGGHYLVEFKSIYMAKKPVQLPGYYYVDSKLDITSHNEDYTIVEQYERTEGRHHLFLGSTSGSGKPGSGEGSTKGMRSSKNVIKEFMRFKVRMEGTVNGHEFEIEGEGEGRPYEGHNTVKLKVTKGGPLPFAWDILSPQFQYGSKVYVKHPADIPDYKKLSFPEGFKWERVMNFEDGGVVTVTQDSSLQDGCFIYKVKFIGVNFPSDGPVMQKKTMGWEASTERLYPRDGVLKGEIHKALKLKDGGHYLVEFKSIYMAKKPVQLPGYYYVDSKLDITSHNEDYTIVEQYERTEGRHHLFL
**Q.** Does B2 bind [2]?
**A.** binds

B3: tandem DsRed-I125R (tDsRed-I125R) (other)
chain: MRGSHHHHHHGMASMTGGQQMGRDLYDDDDKDPMRSSKNVIKEFMRFKVRMEGTVNGHEFEIEGEGEGRPYEGHNTVKLKVTKGGPLPFAWDILSPQFQYGSKVYVKHPADIPDYKKLSFPEGFKWERVMNFEDGGVVTVTQDSSLQDGCFIYKVKFRGVNFPSDGPVMQKKTMGWEASTERLYPRDGVLKGEIHKALKLKDGGHYLVEFKSIYMAKKPVQLPGYYYVDSKLDITSHNEDYTIVEQYERTEGRHHLFLGSTSGSGKPGSGEGSTKGMRSSKNVIKEFMRFKVRMEGTVNGHEFEIEGEGEGRPYEGHNTVKLKVTKGGPLPFAWDILSPQFQYGSKVYVKHPADIPDYKKLSFPEGFKWERVMNFEDGGVVTVTQDSSLQDGCFIYKVKFRGVNFPSDGPVMQKKTMGWEASTERLYPRDGVLKGEIHKALKLKDGGHYLVEFKSIYMAKKPVQLPGYYYVDSKLDITSHNEDYTIVEQYERTEGRHHLFL
**Q.** Does B3 bind [3]?
**A.** no binding

B4: Gal4 activation domain alone (pGAD GH without DsRed) (other, UniProt P04386 768-881, looked up)
chain: ANFNQSGNIADSSLSFTFTNSSNGPNLITTQTNSQALSQPIASSNVHDNFMNNEITASKIDDGNNSKPLSPGWTDQTAYNAFGITTGMFNTTTMDDVYNYLFDDEDTPPNPKKE
notes: range 768-881; Negative control of the two hybrid assay
**Q.** Does B4 bind [4]?
**A.** no binding

B5: DsRed-I125R (other)
chain: MRGSHHHHHHGMASMTGGQQMGRDLYDDDDKDPMRSSKNVIKEFMRFKVRMEGTVNGHEFEIEGEGEGRPYEGHNTVKLKVTKGGPLPFAWDILSPQFQYGSKVYVKHPADIPDYKKLSFPEGFKWERVMNFEDGGVVTVTQDSSLQDGCFIYKVKFRGVNFPSDGPVMQKKTMGWEASTERLYPRDGVLKGEIHKALKLKDGGHYLVEFKSIYMAKKPVQLPGYYYVDSKLDITSHNEDYTIVEQYERTEGRHHLFL
notes: Protomer
**Q.** Does B5 bind [5]?
**A.** binds

B6: DsRed I125K (other)
chain: MRGSHHHHHHGMASMTGGQQMGRDLYDDDDKDPMRSSKNVIKEFMRFKVRMEGTVNGHEFEIEGEGEGRPYEGHNTVKLKVTKGGPLPFAWDILSPQFQYGSKVYVKHPADIPDYKKLSFPEGFKWERVMNFEDGGVVTVTQDSSLQDGCFIYKVKFKGVNFPSDGPVMQKKTMGWEASTERLYPRDGVLKGEIHKALKLKDGGHYLVEFKSIYMAKKPVQLPGYYYVDSKLDITSHNEDYTIVEQYERTEGRHHLFL
notes: Protomer; mixture of dimer and tetramer
**Q.** Does B6 bind [6]?
**A.** binds

B7: T1 DsRed-I125R (other)
chain: MRGSHHHHHHGMASMTGGQQMGRDLYDDDDKDPMASSEDVIKEFMRFKVRMEGSVNGHEFEIEGEGEGRPYEGTQTAKLKVTKGGPLPFAWDILSPQFQYGSKVYVKHPADIPDYKKLSFPEGFKWERVMNFEDGGVVTVTQDSSLQDGSFIYKVKFRGVNFPSDGPVMQKKTMGWEASTERLYPRDGVLKGEIHKALKLKDGGHYLVEFKSIYMAKKPVQLPGYYYVDSKLDITSHNEDYTIVEQYERAEGRHHLFL
notes: Protomer; forms a dimer; also called T1-I125R
**Q.** Does B7 bind [5]?
**A.** binds

B8: DsRed obligate tetramer (polyHis-tagged) (other)
chain: MRGSHHHHHHGMASMTGGQQMGRDLYDDDDKDPMRSSKNVIKEFMRFKVRMEGTVNGHEFEIEGEGEGRPYEGHNTVKLKVTKGGPLPFAWDILSPQFQYGSKVYVKHPADIPDYKKLSFPEGFKWERVMNFEDGGVVTVTQDSSLQDGCFIYKVKFIGVNFPSDGPVMQKKTMGWEASTERLYPRDGVLKGEIHKALKLKDGGHYLVEFKSIYMAKKPVQLPGYYYVDSKLDITSHNEDYTIVEQYERTEGRHHLFL
notes: The tetramer as a unit, for the fitted tetramer-to-octamer dissociation constant; also called tetramer of polyHis-tagged DsRed
**Q.** For B8, which Kd [7] is on record?
**A.** 39 µM

B9: T1 (Discosoma sp. variant fast T1 red fluorescent protein) (other)
chain: MRGSHHHHHHGMASMTGGQQMGRDLYDDDDKDPMASSEDVIKEFMRFKVRMEGSVNGHEFEIEGEGEGRPYEGTQTAKLKVTKGGPLPFAWDILSPQFQYGSKVYVKHPADIPDYKKLSFPEGFKWERVMNFEDGGVVTVTQDSSLQDGSFIYKVKFIGVNFPSDGPVMQKKTMGWEASTERLYPRDGVLKGEIHKALKLKDGGHYLVEFKSIYMAKKPVQLPGYYYVDSKLDITSHNEDYTIVEQYERAEGRHHLFL
notes: Protomer of a tetramer; also called fast tetramer T1; DsRed-Express
**Q.** Does B9 bind [8]?
**A.** binds
